In patent publication US20060252692A1, “Inhibitors for use in hemostasis” (ZymoGenetics, Inc., priority 2002, published 2006):

Key:
[1] = system: alternate pathway of human Complement serum; assay: Complement hemolysis assay, alternate pathway (rabbit erythrocytes and EGTA); assay type: biochemical
Description: (§1) Complement assays were performed in 96 well round bottom plates. Gelatin Veronal buffer containing magnesium and calcium (141 mM NaCl, 1.8 mM sodium barbitol, 3.1 mM barbituric acid, 0.1% bovine gelatin, 0.5 mM MgCl2 and 0.15 mM CaCl2) was used for all serum and inhibitor dilutions as well as erythrocyte suspensions. Fifty microliters of standardized human Complement serum (Sigma Chemical Co.), diluted 1/37.5 (for a final dilution of 1/150) was added to each well. The inhibitor was added in triplicate, 50 μl/well. The serum and inhibitor were incubated for thirty minutes at room temperature. The assay was initiated by the addition of 100 μl of 2×10^8/ml unsensitized sheep erythrocytes (Colorado Serum Co.; Denver, Colo.), sensitized sheep erythrocytes, sensitized using the Hemolysin manufacturer's protocol (BioWhittaker Inc.; Walkersville, Md.) and rabbit erythrocytes containing 16 mM EGTA, and 4 mM Mg^++. A human serum dilution series from 1/50 to 1/400 was also plated as an activity control. Erythrocytes, lysed with distilled water and diluted to 100, 75, 50, 25, and 12.5 percent lysis, were used to quantify complement percent lysis. The plate was sealed and incubated at 37° C. for one hour with mixing every 15 minutes. […] The plate was read at 415 nm and percent lysis was calculated.

[2] = biological target: T1, collagen type VI (Homo sapiens, UniProt P12109+P12110+P12111); assay: Quantitative ELISA binding to collagen type VI; details: Zsig37-FITC 0.4 to 4 μg/ml, 10 μg collagen type VI
T1 construct: purchased Chemicon International; Temecula, Calif
Description: An ELISA (Enzyme-linked Immunosorbant Assay) was used to measure binding of zsig37 to complement C1q, and to the following matrix proteins: Bovine Collagen Type I (Becton Dickinson; Lincoln Park, N.J.), laminin, vitronectin, fibronectin, human collagen Types II, III, IV, V, VI (Chemicon International; Temecula, Calif.). BSA V (Sigma Chemical Co.) was used as a negative control. Just prior to use, the proteins were diluted in 2× PBS (Phosphate Buffered Saline, Sigma Chemical Co.) to 100 μg/ml and adjusted to pH 7.2 with 0.1 N NaOH. Each protein sample was plated in quadruplicate (100 μl/well) into a 96 well plate. The plate was allowed to dry overnight in a laminar flow hood and washed three times with 400 μl of 5 mg/ml BSA in 1× PBS and blotted dry. Zsig37 was FITC labeled according to manufacturer's instruction (Pierce; Rockford, Ill.). Into each well was added 100 μl of 1.8 μg/ml zsig37-FITC in 5% BSA, PBS. The plates were incubated for 1.5 hours at room temperature then washed 3 time with 5% BSA, PBS. To each well was then added 100 μl of 1:400 mouse anti-FITC/Biotin (Sigma Chemical Co.). […]
The ELISA assay for binding, described above, was modified to quantitatively evaluate binding. […] The luminescence from the SUPERSIGNAL reagent was read on a Wallac 1420 plate reader (Wallac; Gaithersburg Md.) and the intensity used as a quantitative measure of the zsig37-FITC bound to the ELISA plate.

[3] = system: TF-1 cells; assay: Adhesion and spreading of TF-1 cells on zsig37-coated plates; assay type: cell-based; details: addition of soluble zsig37
Description: The ability of zsig37 to stimulate adhesion and spreading of TF-1 cells was assayed as follows. A series of dilutions were prepared from C-terminal Glu-Glu-tagged zsig37, from 10 to 0.0625 ’g/ml, in either PBS or ELISA coating buffer (0.1 M NaCO3) and each was plated into a 96 well plate (Costar; Pleasanton, Calif.) at 100 μl/well. The plates were incubated at 37° C., 5% CO2 for 2 hours. The plates were then washed 3× with RPMI/10% FBS (RPMI 1640, 2 mM L-glutamine, 110 μg/ml sodium pyruvate, PSN and 10% heat inactivated fetal bovine serum) and allowed to block for 15 minutes.
TF-1 cells (derived from acute myeloid leukemia cells) were resuspended in RPMI/10% FBS and plated into at 10,000 cells/well into the zsig37CEE-coated 96 well plates at a final volume of 120 μl/well. The plate was incubated at 37° C. under 5% CO2 for 2 hours. The plates were then washed 3× with PBS and 200 μl/well growth media (RPMI/10% FBS, 5 ng/ml GM-CSF) was added. The cells were microscopically inspected before and after the wash.
A dye incorporation assay was also used to measure the number of adherent cells based on a colorimetric change and an increase in fluorescent signal. ALAMAR BLUE (AccuMed; Chicago, Ill.) was added to the 96 well plates and the cells were incubated at 37° C. under 5% CO2 overnight. […]

[4] = system: classical pathway of human Complement serum; assay: Complement hemolysis assay, classical pathway (sheep erythrocytes); assay type: biochemical
Description: as §1

T1 sequence (P12109 20-1028): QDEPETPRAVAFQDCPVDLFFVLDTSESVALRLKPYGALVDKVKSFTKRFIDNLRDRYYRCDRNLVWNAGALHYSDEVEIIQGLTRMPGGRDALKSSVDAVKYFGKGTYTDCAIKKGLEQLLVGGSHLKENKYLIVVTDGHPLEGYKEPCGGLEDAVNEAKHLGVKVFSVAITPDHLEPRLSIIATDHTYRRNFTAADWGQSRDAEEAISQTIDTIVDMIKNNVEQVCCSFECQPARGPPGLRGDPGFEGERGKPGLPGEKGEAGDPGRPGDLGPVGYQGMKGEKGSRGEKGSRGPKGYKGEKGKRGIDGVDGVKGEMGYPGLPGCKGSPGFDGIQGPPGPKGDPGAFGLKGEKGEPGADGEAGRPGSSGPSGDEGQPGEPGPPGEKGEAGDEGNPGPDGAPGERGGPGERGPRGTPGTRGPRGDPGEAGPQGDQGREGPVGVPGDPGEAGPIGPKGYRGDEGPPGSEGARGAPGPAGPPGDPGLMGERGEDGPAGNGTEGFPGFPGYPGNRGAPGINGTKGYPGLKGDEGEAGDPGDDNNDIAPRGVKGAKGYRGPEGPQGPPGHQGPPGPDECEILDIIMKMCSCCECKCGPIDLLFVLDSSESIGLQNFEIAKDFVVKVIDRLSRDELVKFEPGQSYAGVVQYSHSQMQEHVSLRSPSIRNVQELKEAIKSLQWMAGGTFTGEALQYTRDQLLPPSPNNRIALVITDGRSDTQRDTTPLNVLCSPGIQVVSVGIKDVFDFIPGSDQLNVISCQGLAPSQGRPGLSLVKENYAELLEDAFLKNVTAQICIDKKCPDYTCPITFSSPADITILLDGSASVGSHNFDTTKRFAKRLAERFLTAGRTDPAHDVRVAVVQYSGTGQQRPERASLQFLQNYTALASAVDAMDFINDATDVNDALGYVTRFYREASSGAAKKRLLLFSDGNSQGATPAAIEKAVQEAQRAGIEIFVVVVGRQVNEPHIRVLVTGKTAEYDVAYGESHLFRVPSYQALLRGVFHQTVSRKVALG
T1 sequence (P12110 21-1019): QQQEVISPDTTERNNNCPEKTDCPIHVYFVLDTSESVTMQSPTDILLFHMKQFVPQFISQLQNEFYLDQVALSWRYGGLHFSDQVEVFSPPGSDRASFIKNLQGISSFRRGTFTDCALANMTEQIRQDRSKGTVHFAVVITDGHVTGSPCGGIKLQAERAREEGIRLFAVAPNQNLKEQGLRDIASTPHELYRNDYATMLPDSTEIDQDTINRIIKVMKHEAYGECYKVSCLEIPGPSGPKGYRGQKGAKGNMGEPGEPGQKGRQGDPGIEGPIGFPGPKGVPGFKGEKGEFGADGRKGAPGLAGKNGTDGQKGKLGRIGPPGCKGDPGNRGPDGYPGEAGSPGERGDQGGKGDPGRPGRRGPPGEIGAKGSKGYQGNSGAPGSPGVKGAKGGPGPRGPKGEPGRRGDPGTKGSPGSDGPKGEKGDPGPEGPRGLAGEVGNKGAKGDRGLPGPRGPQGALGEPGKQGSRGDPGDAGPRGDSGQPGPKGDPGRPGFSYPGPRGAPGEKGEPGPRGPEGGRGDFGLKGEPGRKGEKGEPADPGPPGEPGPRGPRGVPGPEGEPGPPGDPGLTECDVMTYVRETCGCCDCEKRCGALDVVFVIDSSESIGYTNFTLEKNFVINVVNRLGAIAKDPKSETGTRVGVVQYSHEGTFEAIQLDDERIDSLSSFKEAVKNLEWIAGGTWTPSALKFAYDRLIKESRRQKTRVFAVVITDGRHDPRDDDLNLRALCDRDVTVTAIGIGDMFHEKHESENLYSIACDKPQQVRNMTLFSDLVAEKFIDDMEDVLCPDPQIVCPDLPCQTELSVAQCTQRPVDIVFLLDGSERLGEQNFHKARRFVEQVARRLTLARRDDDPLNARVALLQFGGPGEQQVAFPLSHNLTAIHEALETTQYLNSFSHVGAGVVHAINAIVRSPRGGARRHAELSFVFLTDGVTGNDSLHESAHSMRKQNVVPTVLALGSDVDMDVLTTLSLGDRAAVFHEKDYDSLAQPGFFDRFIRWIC
T1 sequence (P12111 26-3177): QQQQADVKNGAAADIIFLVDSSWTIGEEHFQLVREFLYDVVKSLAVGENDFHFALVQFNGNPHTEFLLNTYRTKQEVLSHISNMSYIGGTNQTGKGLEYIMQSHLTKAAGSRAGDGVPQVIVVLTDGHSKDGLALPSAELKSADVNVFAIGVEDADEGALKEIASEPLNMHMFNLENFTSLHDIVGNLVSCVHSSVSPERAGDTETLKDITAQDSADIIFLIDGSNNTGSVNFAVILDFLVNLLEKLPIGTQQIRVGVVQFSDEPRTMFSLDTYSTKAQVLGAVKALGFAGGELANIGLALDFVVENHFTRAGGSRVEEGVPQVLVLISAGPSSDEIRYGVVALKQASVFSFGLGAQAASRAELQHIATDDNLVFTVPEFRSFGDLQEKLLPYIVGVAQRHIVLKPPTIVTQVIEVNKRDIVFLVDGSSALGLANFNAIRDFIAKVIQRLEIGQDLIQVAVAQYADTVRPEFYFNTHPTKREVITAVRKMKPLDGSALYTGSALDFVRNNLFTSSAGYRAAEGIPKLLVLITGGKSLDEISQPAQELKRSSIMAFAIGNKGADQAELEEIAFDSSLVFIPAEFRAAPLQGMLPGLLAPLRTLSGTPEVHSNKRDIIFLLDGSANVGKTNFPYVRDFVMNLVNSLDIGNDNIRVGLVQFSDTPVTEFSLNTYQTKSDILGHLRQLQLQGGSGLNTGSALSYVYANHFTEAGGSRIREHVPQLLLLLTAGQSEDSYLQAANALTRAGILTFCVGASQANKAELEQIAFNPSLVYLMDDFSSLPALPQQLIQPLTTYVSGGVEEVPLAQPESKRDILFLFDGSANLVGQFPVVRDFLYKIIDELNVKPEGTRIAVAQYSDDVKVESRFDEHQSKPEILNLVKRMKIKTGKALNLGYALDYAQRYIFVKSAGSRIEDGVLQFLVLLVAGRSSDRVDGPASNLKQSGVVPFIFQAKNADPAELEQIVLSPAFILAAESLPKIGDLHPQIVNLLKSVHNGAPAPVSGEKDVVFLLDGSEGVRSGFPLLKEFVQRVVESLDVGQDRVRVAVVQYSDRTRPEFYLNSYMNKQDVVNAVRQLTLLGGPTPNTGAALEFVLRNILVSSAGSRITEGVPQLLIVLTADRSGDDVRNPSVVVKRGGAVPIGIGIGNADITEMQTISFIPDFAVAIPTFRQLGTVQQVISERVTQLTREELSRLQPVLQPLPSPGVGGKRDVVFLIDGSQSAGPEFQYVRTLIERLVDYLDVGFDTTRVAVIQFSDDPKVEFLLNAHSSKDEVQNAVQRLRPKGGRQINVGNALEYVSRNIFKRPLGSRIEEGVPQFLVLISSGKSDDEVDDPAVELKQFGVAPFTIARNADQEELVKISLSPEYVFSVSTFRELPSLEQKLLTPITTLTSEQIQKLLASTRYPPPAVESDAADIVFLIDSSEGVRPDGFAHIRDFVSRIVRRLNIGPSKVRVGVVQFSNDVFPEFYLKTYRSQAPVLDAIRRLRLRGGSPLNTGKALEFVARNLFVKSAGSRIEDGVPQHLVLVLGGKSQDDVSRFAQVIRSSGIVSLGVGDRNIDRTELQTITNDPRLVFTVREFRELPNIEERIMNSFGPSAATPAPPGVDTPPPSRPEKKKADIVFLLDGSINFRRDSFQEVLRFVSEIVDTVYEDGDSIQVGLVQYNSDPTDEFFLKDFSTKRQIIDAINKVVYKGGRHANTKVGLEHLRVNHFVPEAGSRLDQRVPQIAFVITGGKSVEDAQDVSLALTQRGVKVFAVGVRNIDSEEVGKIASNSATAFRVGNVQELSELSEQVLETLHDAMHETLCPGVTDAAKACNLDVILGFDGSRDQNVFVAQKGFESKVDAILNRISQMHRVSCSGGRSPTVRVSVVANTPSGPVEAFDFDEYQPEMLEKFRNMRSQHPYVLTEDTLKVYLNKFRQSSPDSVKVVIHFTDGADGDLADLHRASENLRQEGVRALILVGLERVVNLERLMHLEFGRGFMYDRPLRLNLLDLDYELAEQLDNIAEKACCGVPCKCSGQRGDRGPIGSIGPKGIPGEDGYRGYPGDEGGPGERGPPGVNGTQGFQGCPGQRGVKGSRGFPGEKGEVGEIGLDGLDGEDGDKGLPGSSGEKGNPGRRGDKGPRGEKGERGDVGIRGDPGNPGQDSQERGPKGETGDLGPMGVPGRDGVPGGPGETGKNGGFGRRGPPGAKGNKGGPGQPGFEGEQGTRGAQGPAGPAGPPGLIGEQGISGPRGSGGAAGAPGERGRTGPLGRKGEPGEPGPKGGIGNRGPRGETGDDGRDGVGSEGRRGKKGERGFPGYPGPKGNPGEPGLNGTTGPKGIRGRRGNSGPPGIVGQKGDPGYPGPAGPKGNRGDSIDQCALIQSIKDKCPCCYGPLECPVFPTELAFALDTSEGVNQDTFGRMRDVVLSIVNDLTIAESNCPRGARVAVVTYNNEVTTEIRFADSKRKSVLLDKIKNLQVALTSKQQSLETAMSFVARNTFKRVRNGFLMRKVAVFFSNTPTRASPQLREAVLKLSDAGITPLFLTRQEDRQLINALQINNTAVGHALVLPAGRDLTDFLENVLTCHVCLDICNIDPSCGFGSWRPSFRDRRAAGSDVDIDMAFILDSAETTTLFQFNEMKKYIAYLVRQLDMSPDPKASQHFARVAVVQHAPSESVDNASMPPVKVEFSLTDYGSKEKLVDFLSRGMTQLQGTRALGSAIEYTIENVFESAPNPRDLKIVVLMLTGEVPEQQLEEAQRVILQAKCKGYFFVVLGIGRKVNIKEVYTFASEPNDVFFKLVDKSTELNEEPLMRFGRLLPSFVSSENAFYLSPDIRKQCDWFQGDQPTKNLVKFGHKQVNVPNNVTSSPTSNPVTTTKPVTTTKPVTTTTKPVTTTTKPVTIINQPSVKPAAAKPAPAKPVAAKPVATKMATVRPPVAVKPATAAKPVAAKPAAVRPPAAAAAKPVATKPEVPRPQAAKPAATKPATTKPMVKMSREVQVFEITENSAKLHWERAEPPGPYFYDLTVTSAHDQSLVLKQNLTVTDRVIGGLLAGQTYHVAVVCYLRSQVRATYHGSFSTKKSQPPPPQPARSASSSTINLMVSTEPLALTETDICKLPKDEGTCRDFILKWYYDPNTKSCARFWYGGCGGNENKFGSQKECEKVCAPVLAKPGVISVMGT

- binding curve to collagen type VI [2]: fits a typical hyperbolic binding curve
B1: zsig37: adipocyte complement related protein homolog, polypeptide of SEQ ID NO:2, inhibits collagen-mediated platelet activation and the complement pathway (protein, listed as Homo sapiens)
chain: MGSRGQGLLLAYCLLLAFASGLVLSRVPHVQGEQQEWEGTEELPSPPDHAERAEEQHEKYRPSQDQGLPASRCLRCCDPGTSMYPATAVPQINITILKGEKGDRGDRGLQGKYGKTGSAGARGHTGPKGQKGSMGAPGERCKSHYAAFSVGRKKPMHSNHYYQTVIFDTEFVNLYDHFNMFTGKFYCYVPGLYFFSLNVHTWNQKETYLHIMKNEEEVVILFAQVGDRSIMQSQSLMLELREQDQVWVRLYKGERENAIFSEELDTYITFSGYLVKHATEP
- inhibition of alternate pathway lysis [1]: no apparent inhibition
- block of cell adhesion to bound zsig37 by soluble zsig37 [3]: did not block adhesion
- inhibition of classical pathway lysis ([4]; sensitized sheep erythrocytes): effective in inhibiting the classical pathway
- inhibition of classical pathway lysis ([4]; unsensitized sheep erythrocytes): effective in inhibiting the classical pathway
